Source: patent US20210032351A1 (XDCEXPLORER SHANGHAI, published 2021)

Tests used:
[1] = molecular target: T1, human EGFRvIII protein on the cell surface (human, UniProt P00533 25-1210); assay: cell-based or functional assay
[2] = molecular target: T2, human EGFRvIII-hFc protein (human, UniProt P00533 25-645); assay: ELISA, plate coated with human EGFRvIII-hFc, HRP secondary antibody, absorbance at 450 nm
T2 construct: extracellular domain; made in HEK293 cells, purified on protein A; also called immunogen A; hFc-tagged EGFRvIII protein; not shown: human IgG Fc fragment (hFc) of the pCpC vector
Method: The purified immunogen A (EGFRvIII-hFc) obtained in example 1 (for the preparation method, see step (I) in example 1) is diluted with PBS to a final concentration of 1.0 μg/mL, and then added to a 96-well ELISA plate at 100 μl/well. The plate is sealed with a plastic film and incubated at 4° C. overnight. The next day, the plate is washed twice with a plate washing solution [PBS+0.01% (v/v) Tween20], and added with a blocking solution [PBS+0.01% (v/v) Tween20+1% (w/w) BSA] for blocking 2 hours at room temperature. […] The plate is incubated for 2 hours at 37° C., and then washed 3 times with the plate washing solution [PBS+0.01% (v/v) Tween20]. The plate is added with an HRP (horseradish peroxidase) labeled secondary antibody (purchased from Sigma), incubated at 37° C. for 2 hours, and then washed 3 times with the plate washing solution [PBS+0.01% (v/v) Tween20]. The plate is added with 100 μl of TMB substrate/well, incubated for 30 minutes at room temperature, and then added with 100 μl of stopping solution (1.0N HCl)/well. A450 nm value is read using an ELISA plate reader (SpectraMax 384plus, purchased from Molecular Device), and the results are shown in FIG. 11 and table 19.

[3] = molecular target: T3, human wild-type EGFR protein on the cell surface (human, UniProt P00533 25-1210); assay: FACS, MFI on A431 cells over MFI on normal primary hepatocytes
T3 construct: whole, on cells; Endogenous on A431, HEB, U87MG cells and normal human primary hepatocytes; transfected on CHOk1-EGFR cells; The cell is named under assay; also called A431; HEB
Method in brief: (§1)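 U87MG-EGFRvIII, A431 and primary human hepatocytes (2×10⁶ cells/mL, goat-serum blocked) were incubated with antibody on ice for 2 h, then with an Alexa 488 secondary (1:1000) for 1 h and fixed in 4% paraformaldehyde. Mean fluorescence intensity was read by flow cytometry, and EC50 was derived by curve fitting.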

[4] = molecular target: T3, human wild-type EGFR protein on the …; assay: FACS on A431 tumor cells
Method: (§2) The preparation of U87MG-EGFRvIII required for FACS detection is as described in the preparation of the immunogen B in example 1. Normal human primary hepatocytes are purchased from BioreclamationIVT, and A431 tumor cells are purchased from ATCC. The recovered hepatocytes are directly used for FACS detection, and the recovered U87MG-EGFRvIII and A431 cells are subjected to an expanded culture to 90% confluence in a T-75 cell culture flask; the medium is sucked out, and the cells are washed twice with a HBSS buffer (Hanks Balanced Salt Solution) (purchased from Invitrogen), and then treated with an enzyme-free cell dissociation solution (Versene solution: purchased from Life Technology) and collected. The cells are washed twice with the HBSS buffer and are counted, and then the cells are diluted with the HBSS buffer to 2×10⁶ cells/ml, added with 1% goat serum blocking solution, with the percentage being the mass percentage, and incubated on ice for 30 minutes, and then centrifugally washed twice with the HBSS buffer. The collected cells are resuspended to 2×10⁶ cells/mL with an FACS buffer (HBSS+2% FBS, with the percentage being the volume percentage), added to a 96-well FACS reaction plate at 100 μL/well, then added with 100 μL/well of the purified EGFRvIII antibody (samples to be tested) obtained in example 12, and incubated on ice for 2 hours. The plate is centrifugally washed twice with the FACS buffer, added with 100 μL/well of a 1:1000 diluted fluorescence (Alexa 488) labeled secondary antibody (purchased from Invitrogen), and incubated on ice for 1 hour. The plate is centrifugally washed 3 times with the FACS buffer, added with 100 μL/well of a fixing solution [4% (v/v) paraformaldehyde] to resuspend the cells, and centrifugally washed twice with the FACS buffer after 10 minutes. The cells are resuspended in 100 μL of the FACS buffer, and the results are detected and analyzed by FACS (FACS Calibur, purchased from BD). Data analysis is performed by using the software (CellQuest) to obtain the mean fluorescence intensity (MFI) of the cells. Data is further analyzed by using the software (GraphPad Prism5) to perform data fitting and calculate EC50.

[5] = molecular target: T1, human EGFRvIII protein on the cell …; assay: FACS on U87MG-EGFRvIII cells
Method in brief: as §1

[6] = molecular target: T3, human wild-type EGFR protein on the …; assay: FACS on normal human primary hepatocytes
Method: as §2

[7] = molecular target: T4, human EGFRvIII-hFc protein (human, UniProt P00533 25-645); assay: ELISA, EGFRvIII-hFc coated
T4 construct: extracellular domain; also called immunogen A; hFc-tagged EGFRvIII protein; not shown: human IgG Fc fragment (hFc) of the pCpC vector

Binder	IC50, nM; cell killing of U87MG-hEGFRvIII (CellTiter-Glo, 5 days) [1]	EC50 (read off the curve) [2]	Selective window (MFI A431/Hepatocytes) [3]	MFI [4]	EC50 [5]	Maximum mean fluorescence intensity [5]	MFI [6]	EC50 [7]	Maximum OD450 value [7]
Chimeric antibody 75G7-MMAF (antibody, human IgG1, V domains shown, MC-MMAF coupled after TCEP reduction (sites not given); DAR 3.40 for the antibody) VH: EVQLQQSGPELVKPGASVKIPCKASGYTFTDYNMDWVKQSHGKSLEWIGDINPNNGDTIYNQKFKGKATLTVDKSSSTAYMELRSLTSEDTAVYYCARGDYDGYYPVYYAMDYWGQGTSVTVSS VL: ENVLTQSPAIMSASPGEKVTMTCRASSSVSSSYLHWYQQKSGASPKLWIFSTSNLAAGVPARFSGSGSGTSYSLTVSSVEAEDAATYYCQQYSGYPLTFGAGTKLELK	0.27 nM								
Chimeric antibody 75G7 (antibody, human IgG1, V domains shown, also called c75G7C6; wild-type chimeric antibody c75G7C6) VH: EVQLQQSGPELVKPGASVKIPCKASGYTFTDYNMDWVKQSHGKSLEWIGDINPNNGDTIYNQKFKGKATLTVDKSSSTAYMELRSLTSEDTAVYYCARGDYDGYYPVYYAMDYWGQGTSVTVSS VL: ENVLTQSPAIMSASPGEKVTMTCRASSSVSSSYLHWYQQKSGASPKLWIFSTSNLAAGVPARFSGSGSGTSYSLTVSSVEAEDAATYYCQQYSGYPLTFGAGTKLELK		~0.05 nM							
Humanized antibody h75G7C6-13 (antibody, human IgG1, V domains shown, also called VH-g2/VL-g0) VH: QVQLVQSGAEVKKPGASVKVSCKASGYTFTDYNMDWVKQAPGQGLEWIGDINPNNADTIYNQKFKGRVTLTVDKSTSTVYMELSSLRSEDTAVYYCARGDYDGYYPVYYAMDYWGQGTTVTVSS VL: EIVLTQSPATLSLSPGERATLSCRASSSVSSSYLHWYQQKPGQAPRLLIYSTSNLAAGIPARFSGSGSGTDFTLTISSLEPEDFAVYYCQQYSGYPLTFGGGTKVEIK			44.7 fold	11500 MFI	6.77 nM	18700 MFI	256 MFI	0.48 nM	3.16 OD450
Humanized antibody h75G7C6-14 (antibody, human IgG1, V domains shown, also called VH-g2/VL-g1) VH: QVQLVQSGAEVKKPGASVKVSCKASGYTFTDYNMDWVKQAPGQGLEWIGDINPNNADTIYNQKFKGRVTLTVDKSTSTVYMELSSLRSEDTAVYYCARGDYDGYYPVYYAMDYWGQGTTVTVSS VL: ENVLTQSPATLSLSPGERATLSCRASSSVSSSYLHWYQQKPGQAPRLLIFSTSNLAAGIPARFSGSGSGTDYTLTISSLEPEDFAVYYCQQYSGYPLTFGGGTKVEIK			46.2 fold	11500 MFI	6.37 nM	18500 MFI	248 MFI	0.32 nM	3.03 OD450
Humanized antibody h75G7C6-15 (antibody, human IgG1, V domains shown, also called VH-g2/VL-g2) VH: QVQLVQSGAEVKKPGASVKVSCKASGYTFTDYNMDWVKQAPGQGLEWIGDINPNNADTIYNQKFKGRVTLTVDKSTSTVYMELSSLRSEDTAVYYCARGDYDGYYPVYYAMDYWGQGTTVTVSS VL: ENVLTQSPATLSLSPGERATLSCRASSSVSSSYLHWYQQKPGQSPRLLIFSTSNLAAGIPARFSGSGSGTDYTLTISSLEPEDFAVYYCQQYSGYPLTFGGGTKVEIK			45.3 fold	13000 MFI	6.45 nM	18900 MFI	287 MFI	0.29 nM	3.19 OD450
Humanized antibody h75G7C6-16 (antibody, human IgG1, V domains shown, also called VH-g2/VL-g3) VH: QVQLVQSGAEVKKPGASVKVSCKASGYTFTDYNMDWVKQAPGQGLEWIGDINPNNADTIYNQKFKGRVTLTVDKSTSTVYMELSSLRSEDTAVYYCARGDYDGYYPVYYAMDYWGQGTTVTVSS VL: ENVLTQSPATLSLSPGERATLSCRASSSVSSSYLHWYQQKPGQSPRLLIFSTSNLAAGVPARFSGSGSGTDYTLTISSLEPEDFAVYYCQQYSGYPLTFGGGTKVEIK			46.2 fold	12400 MFI	6.74 nM	18900 MFI	269 MFI	0.27 nM	2.97 OD450
Chimeric antibody 7E5-MMAF (antibody, human IgG1, V domains shown, MC-MMAF coupled after TCEP reduction (sites not given); DAR 3.51 for the antibody) VH: EIQLQQSGPELVKPGASVKVSCKASGYSFTDYNMYWVKQSHGKSLEWIGYVDPSNGGTNYNQKFKGKATLTVDKSSSTAFMHLNSLTSEDSAVYYCARGFFDYWGQGTTLTVSS VL: DIVMTQSPSSLTVTAGEKVTMSCKSSQSLLNSGNQKNYLTWYQQKPGQPPKLLIYWASNRESGVPDRFTGSGSGKDFTLTISSVQAEDLAVYYCQNDYRYPVTFGAGTKLELK	0.04 nM								
Chimeric antibody 63A10-MMAF (antibody, human IgG1, V domains shown, MC-MMAF coupled after TCEP reduction (sites not given); DAR 3.10 for the antibody) VH: QVQLQQSGAELARPGASVKMSCKASGYTFISFTMHWVKQRPGQGLEWIGYINPNSGYTKYNQKFKDKATLTAGQSSSTAYMQLSSLTSEDSAVYYCTRGGGRGFAYWGQGTLVTVSA VL: DILMTQSPSSMSVSLGDTVTITCHASQDINSNIGWLQQKPGKSFKALIYHGTNLEDGVPSRFSGSGSGADYSLTISSLESEDFADYYCVQYAQFPFTFGSGTKLEIK	0.01 nM								
Chimeric antibody 64F1-MMAF (antibody, human IgG1, V domains shown, MC-MMAF coupled after TCEP reduction (sites not given); DAR 4.05 for the antibody) VH: QVQLQQSGAELARPGASVKMSCKASGYTFSSYTMHWAKQRPGQGLEWIGYINPSSGYTKYNQKFKDKATLTADKSSSTAYMQLSSLTSEDSIVYYCARGGGRGFAYWGQGTLVTVSA VL: QIVLTQSPAIMSASPGERVTMTCSASSSVSYMYWYQQKPGSSPRLLIYDTSNLASGVPVRFSGSGSGTSYSLTISRVEAEDAATYYCQQWSSYSLTFGAGTKLELK	0.01 nM								
Chimeric antibody 64F1 (antibody, human IgG1, V domains shown, also called 64F1F8 (chimeric)) VH: QVQLQQSGAELARPGASVKMSCKASGYTFSSYTMHWAKQRPGQGLEWIGYINPSSGYTKYNQKFKDKATLTADKSSSTAYMQLSSLTSEDSIVYYCARGGGRGFAYWGQGTLVTVSA VL: QIVLTQSPAIMSASPGERVTMTCSASSSVSYMYWYQQKPGSSPRLLIYDTSNLASGVPVRFSGSGSGTSYSLTISRVEAEDAATYYCQQWSSYSLTFGAGTKLELK		~0.01 nM							
